From patent US20110243928A1
Where “and” joins values, the source holds several entries; their conditions need not be identical. Equal values may be shown once.

Assays:
[1] = target: Negative control 20 mer peptide (Mimotopes); test: 16 mer peptide ELISA control well, control antibody diluted 4-fold
[2] = target: Positive control 20 mer peptide (Mimotopes); test: as above
[3] = target: Negative control 20 mer peptide (Mimotopes); test: 16 mer peptide ELISA control well, control antibody diluted 32-fold
[4] = target: Positive control 20 mer peptide (Mimotopes); test: as above
[5] = target: Negative control 20 mer peptide (Mimotopes); test: 16 mer peptide ELISA control well, control antibody diluted 16-fold
[6] = target: Positive control 20 mer peptide (Mimotopes); test: as above

In the case of “Control Ab (Supplied with Mimotopes custom order) (antibody)”, the absorbance at 490 nm [1] is reported as 0.077 A490 and 0.072 A490, the absorbance at 490 nm [2] is reported as 1.5 A490 and 1.55 A490 and the absorbance at 490 nm [3] is reported as 0.072 A490 and 0.103 A490. For the same substance, the absorbance at 490 nm [4] was 0.739 A490 and 0.976 A490, the absorbance at 490 nm [5] was 0.08 A490 and 0.082 A490 and the absorbance at 490 nm [6] was 1.2 A490 and 1.21 A490.
